# Data: US20250011363A1, “OPTIMIZED SHORTENED PEPTIDE THAT BINDS TO ACETYLCHOLINE RECEPTOR, AND USE THEREOF” (SKINMED CO., LTD., priority 2021, published 2025)
# Target: acetylcholine receptor (Homo sapiens, UniProt P02708)
# Experiment: SPR binding affinity (RU) of optimized 5mer/6mer/7mer peptides, Examples 6-7
# Details: 6mer-1 Top sequence; SPR; peptides tested at 10 μM
# In short: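 Response units from SPR give the binding values listed. Each synthesized peptide was run at 10 μM over the receptor.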
# Sequence of acetylcholine receptor (P02708 21-457): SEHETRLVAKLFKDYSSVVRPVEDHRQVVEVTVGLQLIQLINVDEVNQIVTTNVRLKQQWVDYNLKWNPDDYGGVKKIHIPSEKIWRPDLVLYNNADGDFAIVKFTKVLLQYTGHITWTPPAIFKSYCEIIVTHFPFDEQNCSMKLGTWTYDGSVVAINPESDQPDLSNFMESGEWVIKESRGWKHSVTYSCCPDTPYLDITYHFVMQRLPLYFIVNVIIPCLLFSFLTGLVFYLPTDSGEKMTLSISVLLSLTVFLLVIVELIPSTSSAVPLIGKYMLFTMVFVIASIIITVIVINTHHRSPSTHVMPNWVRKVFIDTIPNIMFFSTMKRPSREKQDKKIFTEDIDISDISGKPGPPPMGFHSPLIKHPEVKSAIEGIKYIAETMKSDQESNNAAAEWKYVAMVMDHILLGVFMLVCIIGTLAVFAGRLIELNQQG
row,Substance,Binding affinity [Ru]
1,6mer-1-354 (KKVFLK),153
2,6mer-1-299 (KRWLSK),139
3,6mer-1-222 (RRRVRR),145
4,6mer-1-275 (RKRVLK),123
5,6mer-1-282 (RRRRYR),121
6,6mer-1-384 (RKVICK),148
7,6mer-1-233 (KKWQSR),128
8,6mer-1-337 (RKSRRR),144

# Same assay, conditions: 6mer-2 Top sequence; SPR; peptides tested at 10 μM
row,Substance,Binding affinity [Ru]
1,6mer-2-134 (RLFQRK),148
2,6mer-2-63 (KSFRKR),121
3,6mer-2-117 (KRYTRK),148
4,6mer-2-50 (RSQSKR),125
5,6mer-2-148 (KGQYKK),145
6,6mer-2-201 (KLFLRR),148

# Same assay, conditions: SPR, Resonance Units; 5mer Bottom sequence (bottom combinations); peptides tested at 10 μM
row,Substance,Binding affinity [Ru]
1,5mer-924 (RNEKK),27
2,5mer-1019 (RFKFK),28
3,5mer-1111 (KAEHK),12
4,5mer-735 (RHCER),11
5,5mer-936 (RNHKR),29
6,5mer-1057 (RFDPK),13
7,5mer-743 (KYAFR),15
8,5mer-961 (KIANR),32
9,5mer-950 (KDADR),22
10,5mer-798 (RETMK),13
11,5mer-1083 (KFSVR),31
12,5mer-953 (RKMAR),23
13,5mer-940 (KCMGK),18

# Same assay, conditions: SPR, Resonance Units; peptides tested at 10 μM; 6mer-1 Bottom sequence
row,Substance,Binding affinity [Ru]
1,6mer-1-1092 (RKYHDK),43
2,6mer-1-1164 (KKHHAK),41
3,6mer-1-1120 (RRKEAK),22
4,6mer-1-1191 (RKYTKK),39
5,6mer-1-1090 (KKTMWR),27
6,6mer-1-1007 (RKPTDR),39
7,6mer-1-1077 (RRKWGR),24

# Same assay, conditions: SPR, Resonance Units; peptides tested at 10 μM; 6mer-1 Bottom sequence (Table 11)
row,Substance,Binding affinity [Ru]
1,6mer-1-710 (KKMHHR),21
2,6mer-1-663 (KKFKDR),26
3,6mer-1-791 (RKPDDK),13
4,6mer-1-722 (RRNKVR),12
5,6mer-1-659 (KKPSKR),29
6,6mer-1-716 (RRMPFK),11

# Same assay, conditions: SPR, Resonance Units; peptides tested at 10 μM; 6mer-2 Bottom sequence
row,Substance,Binding affinity [Ru]
1,6mer-2-745 (KNTERR),17
2,6mer-2-657 (RKHERK),32
3,6mer-2-625 (RFPDKK),33
4,6mer-2-792 (RAEDKR),13
5,6mer-2-931 (RYCFKR),29
6,6mer-2-646 (RAAPRR),32
7,6mer-2-668 (RFCNKK),13
8,6mer-2-925 (RASVKR),23
9,6mer-2-660 (RHKDRK),16
10,6mer-2-976 (RTTGKK),26
11,6mer-2-693 (KNTIRR),16
12,6mer-2-974 (RFDDRR),38
13,6mer-2-809 (REPWRR),18
14,6mer-2-633 (KYAVKR),17
15,6mer-2-897 (RPAHKK),17
16,6mer-2-849 (RNTAKK),13
17,6mer-2-859 (RMDFRK),21
18,6mer-2-902 (KPDVRK),26
19,6mer-2-678 (KEWWRR),32

# Same assay, conditions: SPR, Resonance Units; peptides tested at 10 μM; 6mer-2 Top sequence
row,Substance,Binding affinity [Ru]
1,6mer-2-424 (RLYCKK),139
2,6mer-2-482 (KGQTRR),154
3,6mer-2-491 (KRICKR),135
4,6mer-2-430 (RWFRRR),139
5,6mer-2-531 (KVIYKR),148
6,6mer-2-506 (KSLLKK),135
7,6mer-2-410 (KRFRKK),153
8,6mer-2-599 (RRRYRK),121
9,6mer-2-581 (RVQQKR),139
10,6mer-2-514 (KGLQKK),124
11,6mer-2-470 (RLRRRK),153
12,6mer-2-459 (KLFSRK),139
13,6mer-2-569 (RWQLRK),135
14,6mer-2-485 (RQIQKR),148

# Same assay, conditions: SPR, Resonance Units; peptides tested at 10 μM; 6mer-2 Top sequence (Table 12)
row,Substance,Binding affinity [Ru]
1,6mer-2-312 (KWRTKR),121
2,6mer-2-365 (RWRYRR),121
3,6mer-2-319 (RSRQRK),137
4,6mer-2-247 (KGYQKK),146
5,6mer-2-380 (RLVYRK),141
6,6mer-2-219 (RGVSKR),153
7,6mer-2-314 (KQYCKK),127
8,6mer-2-284 (KLRSKR),151
9,6mer-2-294 (KLYYRR),135
10,6mer-2-369 (KVVRRR),145
11,6mer-2-316 (KGIRRR),139
12,6mer-2-267 (KLYSRR),141

# Same assay, conditions: SPR, peptides at 10 μM; 6mer-2 Bottom sequence
row,Substance,Binding affinity [Ru]
1,6mer-2-1181 (KACWKR),32
2,6mer-2-1130 (RHSFRK),29
3,6mer-2-1154 (RYEARR),30
4,6mer-2-1014 (RPPMRR),34
5,6mer-2-1106 (KDKVKR),28
6,6mer-2-1096 (RANVKR),39
7,6mer-2-1122 (RCNFKK),22
8,6mer-2-1117 (RMHVKR),21
9,6mer-2-1087 (KEEMRR),21
10,6mer-2-1038 (KHWERK),33
11,6mer-2-1035 (RPPVKK),39

# Same assay, conditions: SPR, peptides tested at 10 μM; 5mer Top sequence
row,Substance,Binding affinity [Ru]
1,5mer-387 (RRILR),52
2,5mer-171 (KSIQR),55
3,5mer-38 (RGYCK),53
4,5mer-23 (KWLYK),86
5,5mer-396 (KVVCR),53
6,5mer-177 (RWVRK),77
7,5mer-306 (KSYYR),74
8,5mer-462 (RWQSK),69
9,5mer-417 (KWLQK),65
10,5mer-101 (RQQYR),55
11,5mer-352 (RLVRK),76
12,5mer-327 (RVLCR),86
13,5mer-336 (KSVSR),83
14,5mer-200 (KRVRR),55

# Same assay, conditions: SPR, peptides tested at 10 μM; 5mer Top sequence (top combinations)
row,Substance,Binding affinity [Ru]
1,5mer-592 (RWLCR),56
2,5mer-270 (RSQQR),52
3,5mer-248 (RWYLK),63
4,5mer-259 (RLIRK),71
5,5mer-288 (KLILK),73
6,5mer-548 (KWLCK),60
7,5mer-542 (KRYTR),85
8,5mer-567 (RRYCK),63

# Same assay, conditions: SPR, peptides tested at 10 μM; 6mer-1 Bottom sequence (Table 11)
row,Substance,Binding affinity [Ru]
1,6mer-1-964 (RKFKNK),42
2,6mer-1-967 (RRTEDR),24
3,6mer-1-907 (RKPAWR),42
4,6mer-1-895 (KKDSKK),28
5,6mer-1-864 (RRTWGR),32
6,6mer-1-898 (RKATKR),31

# Same assay, conditions: SPR, peptides tested at 10 μM; 6mer-1 Top sequence
row,Substance,Binding affinity [Ru]
1,6mer-1-501 (KRVLYK),154
2,6mer-1-600 (KRGYCR),139
3,6mer-1-538 (RRSQCK),142
4,6mer-1-463 (KRSFRK),153

# Same assay, conditions: SPR, peptides tested at 10 μM; 6mer-1 Top sequence (top combinations)
row,Substance,Binding affinity [Ru]
1,6mer-1-40 (KRSQYK),121
2,6mer-1-125 (KRRLCR),135
3,6mer-1-128 (RKQFYR),126
4,6mer-1-200 (RKLYQR),142
5,6mer-1-145 (RKVFQR),141
6,6mer-1-24 (RKVIRK),142
7,6mer-1-166 (RRWYSK),148
8,6mer-1-183 (KKGQTR),121

# Same assay, conditions: SPR; XRRGVRR-7mer and RRGVRRX-7mer
row,Substance,"Binding affinity, values relative to the RRGVRR sequence"
1,3670 (RRGVRRF) [compound 3670],137
2,3678 (RRGVRRH) [compound 3678],154
3,3643 (VRRGVRR) [compound 3643],140

# Same assay, conditions: SPR; XRRQRR-6mer and RRQRRX-6mer
row,Substance,"Binding affinity, relative value to the RRQRR sequence"
1,3634 (RRQRRN) [compound 3634],109
2,3624 (RRQRRC) [compound 3624],126
3,3636 (RRQRRK) [compound 3636],175

# Same assay, conditions: SPR; peptides tested at 10 μM; 5mer Bottom sequence
row,Substance,Binding affinity [Ru]
1,5mer-886 (RMMFR),21
2,5mer-887 (KTPVR),30
3,5mer-1186 (KMWVK),12
4,5mer-829 (KCWHR),26
5,5mer-1143 (RATGK),19
6,5mer-1168 (RHHWR),31
7,5mer-847 (KAPEK),28
